Data on three molecules can be found in patent US20180346564A1 (TEIJIN PHARMA, published 2018).

Where a chain is given by its changes, count along the chain named. [ ]: non-standard residue; d: D form. pT = C[C@@H](OP(=O)(O)O)[C@H](N)C(=O)O; pS = N[C@@H](COP(=O)(O)O)C(=O)O

Assay [1] addresses T1, His-tagged non-phosphorylated tau protein 4R0N (human, UniProt P10636 2-758).
T1 construct: Produced by Escherichia coli; negative control in SPR; also called ATGen Cat. No. ATGP0795
Kind of assay: SPR Biacore T200, antigen immobilized. Here is the method: The binding affinities of the hyperphosphorylated tau protein 4R2N (hpTau), non-phosphorylated tau protein 4R0N, monophosphorylated tau peptide 1×P, triphosphorylated tau peptide 3×P, and non-phosphorylated tau peptide Non P with each antibody were measured with an SPR system Biacore T200 (GE Healthcare Japan), in accordance with the instruction manual for evaluation attached to the system.
The His-tagged hpTau or Tau proteins were each immobilized on a sensor chip using an HBS-N buffer (code No. BR-1003-69) as the immobilization reaction solution and allowing a nickel chloride solution to react with the NTA sensor chip for bonding Ni to NTA. Subsequently, the sensor chip was activated with a mixed solution of N-ethyl-N′-(3-dimethylaminopropyl)-carbodiimide hydrochloride (1-ethyl-3-(3-dimethylaminopropyl)carbodiimide hydrochloride: EDC) and N-hydroxysuccinimide (NHS). A solution of each of the His-tagged proteins, adjusted to a concentration of 100 to 500 ng/mL with a 4-(2-hydroxyethyl)-1-piperazineethanesulfonic acid (HEPES) buffer (0.01 M HEPES, 150 mM KCl, 2 mM DTT, 1 mM EDTA, pH 7.2), was applied to the sensor chip, whereby the protein was immobilized on the sensor chip through covalent bonds with the Ni-NTA. The remaining active NHS was blocked with ethanolamine, and Ni ions were removed with an EDTA solution (Ni-affinity amine coupling: see International Publication No. WO2005/022156). The antigen peptides (1×P, 3×P, and Non P) were each immobilized on a sensor chip by activating the NTA sensor chip with a mixed solution of N-ethyl-N′-(3-dimethylaminopropyl)-carbodiimide (EDC) hydrochloride and N-hydroxysuccinimide (NHS), and then applying a solution of the antigen peptide diluted with a 10 mM sodium acetate buffer (pH: 4 to 4.5) to 1 to 10 μM to the sensor chip, whereby the peptide was covalently bound to the sensor chip. The remaining active NHS was blocked with ethanolamine. Thus, sensor chips immobilized respectively with the proteins and peptides mentioned above were produced.
A CAPS buffer (pH 10.5) was applied to these sensor chips at 37° C. to stabilize the protein- or peptide-immobilized surfaces of the sensor chips.
(In general: Surface plasmon resonance follows binding to a sensor surface in real time, without labels.)

In assay [2] the target is T2, Peptide No. 1, pS46, H-GLKE(pS)PLQT-OH (human, SMILES CC(C)C[C@H](NC(=O)CN)C(=O)N[C@@H](CCCCN)C(=O)N[C@@H](CCC(=O)O)C(=O)N[C@@H](COP(=O)(O)O)C(=O)N1CCC[C@H]1C(=O)N[C@@H](CC(C)C)C(=O)N[C@@H](CCC(N)=O)C(=O)N[C@H](C(=O)O)[C@@H](C)O).
T2 peptide: H-GLKE[pS]PLQT-OH
Kind of assay: ELISA, coated peptide. Put shortly: (§1)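 Peptides, or their bovine serum albumin or keyhole limpet hemocyanin conjugates, at 1 μg/mL in cold PBS were coated at 50 μL/well overnight at 4 °C, then blocked with 3% BSA-PBS overnight at 4 °C. Purified antibody at 150 ng/mL in 3% BSA-PBS was bound for 90 minutes at room temperature, followed by alkaline phosphatase-labelled goat anti-human IgG (H+L) (2000-fold, 60 minutes). Binding was read as absorbance at 405 nm (reference 550 nm) after 40 minutes of pNPP development.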
(ELISA stands for enzyme-linked immunosorbent assay.)

In assay [3] the target is T3, Peptide No. 8, pS412, H-NV(pS)STGSC-OH (human, SMILES CC(C)[C@H](NC(=O)[C@@H](N)CC(N)=O)C(=O)N[C@@H](COP(=O)(O)O)C(=O)N[C@@H](CO)C(=O)N[C@H](C(=O)NCC(=O)N[C@@H](CO)C(=O)N[C@@H](CS)C(=O)O)[C@@H](C)O).
T3 peptide: H-NV[pS]STGSC-OH
Nature of the assay: ELISA, coated peptide. The essentials:
as §1

The target in assay [4] is T4, Peptide No. 7, pS396/pS400/pS404, H-GC-RENAKAKTDHGAEIVYK(pS)PVV(pS)GDT(pS)PRHL-OH (human, phosphoserine (pS) at peptide positions 20, 24 and 28 (tau Ser396, Ser400, Ser404)).
T4 peptide: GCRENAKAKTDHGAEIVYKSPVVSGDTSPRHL
Kind of assay: ELISA, coated peptide. Put shortly:
as §1

The target in assay [5] is T5, Peptide No. 5, pT217, H-GC-GSRSRTPSLP(pT)PPTREPKKVAVV-OH (human, phosphothreonine (pT) at peptide position 13 (tau Thr217)).
T5 peptide: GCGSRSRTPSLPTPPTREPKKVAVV
Kind of assay: ELISA, coated peptide. Put shortly: as §1

The target in assay [6] is T6, Peptide No. 4, pT212/pS214, H-GCGSPGTPGSRSR(pT)P(pS)LPTPPTREPK-OH (human, phosphothreonine (pT) at peptide position 14 (tau Thr212); phosphoserine (pS) at peptide position 16 (tau Ser214)).
T6 peptide: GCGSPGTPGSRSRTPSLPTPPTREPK
Nature of the assay: ELISA, coated peptide. Put shortly: as §1

Assay [7] has as its target T7, Peptide No. 2, pS199, H-SGYS(pS)PGSPGC-OH (human, SMILES N[C@@H](CO)C(=O)NCC(=O)N[C@@H](Cc1ccc(O)cc1)C(=O)N[C@@H](CO)C(=O)N[C@@H](COP(=O)(O)O)C(=O)N1CCC[C@H]1C(=O)NCC(=O)N[C@@H](CO)C(=O)N1CCC[C@H]1C(=O)NCC(=O)N[C@@H](CS)C(=O)O).
T7 peptide: H-SGYS[pS]PGSPGC-OH
Nature of the assay: ELISA, coated peptide. Put shortly:
as §1

For assay [8], the target named is T8, Peptide No. 6, pT231, H-KVAVVR(pT)PPKSPS-OH (human).
T8 peptide: H-KVAVVR[pT]PPKSPS-OH
Nature of the assay: ELISA, coated peptide. Put shortly:
as §1

For assay [9], the target named is T9, Peptide No. 3, pS202, H-SSPG(pS)PGTPC-OH (human, SMILES C[C@@H](O)[C@H](NC(=O)CNC(=O)[C@@H]1CCCN1C(=O)[C@H](COP(=O)(O)O)NC(=O)CNC(=O)[C@@H]1CCCN1C(=O)[C@H](CO)NC(=O)[C@@H](N)CO)C(=O)N1CCC[C@H]1C(=O)N[C@@H](CS)C(=O)O).
T9 peptide: H-SSPG[pS]PGTPC-OH
Kind of assay: ELISA, coated peptide. Put shortly: as §1

T1 sequence (P10636 other isoform, or with tags, fused parts or gaps limits assumed): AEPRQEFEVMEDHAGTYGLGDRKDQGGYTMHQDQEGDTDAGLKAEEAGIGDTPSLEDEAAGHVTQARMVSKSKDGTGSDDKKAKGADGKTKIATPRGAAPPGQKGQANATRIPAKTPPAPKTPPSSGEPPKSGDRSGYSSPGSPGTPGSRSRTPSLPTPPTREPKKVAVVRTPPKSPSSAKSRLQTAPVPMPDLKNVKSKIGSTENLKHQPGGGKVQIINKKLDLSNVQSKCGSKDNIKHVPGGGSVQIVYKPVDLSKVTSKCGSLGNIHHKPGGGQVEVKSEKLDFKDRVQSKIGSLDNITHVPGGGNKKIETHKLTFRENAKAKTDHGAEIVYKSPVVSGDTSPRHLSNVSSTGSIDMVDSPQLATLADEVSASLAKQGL

B1: humanized antibody L46H11 (antibody, human IgG1, kappa)
heavy: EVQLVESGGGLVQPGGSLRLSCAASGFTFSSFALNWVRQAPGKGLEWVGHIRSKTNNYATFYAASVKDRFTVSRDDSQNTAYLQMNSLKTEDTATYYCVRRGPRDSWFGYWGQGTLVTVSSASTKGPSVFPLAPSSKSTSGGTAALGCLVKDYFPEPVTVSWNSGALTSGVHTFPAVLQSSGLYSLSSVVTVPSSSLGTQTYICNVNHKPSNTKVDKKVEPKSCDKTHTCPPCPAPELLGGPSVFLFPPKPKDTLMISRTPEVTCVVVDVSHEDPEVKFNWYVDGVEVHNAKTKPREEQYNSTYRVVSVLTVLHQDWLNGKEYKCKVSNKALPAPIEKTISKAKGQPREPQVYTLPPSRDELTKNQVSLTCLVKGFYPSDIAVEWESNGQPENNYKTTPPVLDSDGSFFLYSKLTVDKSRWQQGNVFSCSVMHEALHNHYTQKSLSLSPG
light: DIVMTQSPLSLPVTLGEPASISCRSSQSIVHSNGNTYLEWYLQKPGQSPQLLIYTVSNRFSGVPDRFSGSGSGTDFTLKISRVEAEDLGVYYCFQGSHLPLTFGGGTKVEIKRTVAAPSVFIFPPSDEQLKSGTASVVCLLNNFYPREAKVQWKVDNALQSGNSQESVTEQDSKDSTYSLSSTLTLSKADYEKHKVYACEVTHQGLSSPVTKSFNRGEC
On to B1, for which the binding result in assay [1] is listed as “no binding (tested: 0.2 to 1 nM)”; in assay [2], “no binding (tested: OD value <0.5; antibody 150 ng/mL)”; in assay [3], “no binding (tested: OD value <0.5; antibody 150 ng/mL)”; in assay [4] it was “no binding (tested: OD value <0.5; antibody 150 ng/mL)”; in assay [5] it was “no binding (tested: OD value <0.5; antibody 150 ng/mL)”; in assay [6], “no binding (tested: OD value <0.5; antibody 150 ng/mL)”. The binding result in [7], in assay [8] and in assay [9] was “no binding (tested: OD value <0.5; antibody 150 ng/mL)” in each case.

B2: humanized antibody L47H11 (antibody, human IgG1, kappa, V domains shown)
VH: EVQLVESGGGLVQPGGSLRLSCAASGFTFSSFALNWVRQAPGKGLEWVGHIRSKTNNYATFYAASVKDRFTVSRDDSQNTAYLQMNSLKTEDTATYYCVRRGPRDSWFGYWGQGTLVTVSS
VL: DIVMTQSPLSLPVTLGDPASISCRSSQSIVHSNGNTYLEWYQQKPGQSPQRLIYTVSNRFSGVPDRFSGSGSGTDFTLKISRVEAEDLGVYYCFQGSHLPLTFGGGTKVEIKR
notes: VL47/VH11, human IgG1/kappa
Consider B2, for which the binding result in assay [1] is on record as “no binding (tested: 0.2 to 1 nM)”; in [2], “no binding (tested: OD value <0.5; antibody 150 ng/mL)”; in assay [3], “no binding (tested: OD value <0.5; antibody 150 ng/mL)”; in assay [4] it was “no binding (tested: OD value <0.5; antibody 150 ng/mL)”; in [5], “no binding (tested: OD value <0.5; antibody 150 ng/mL)”; in assay [6], “no binding (tested: OD value <0.5; antibody 150 ng/mL)”. Also, the binding result in assay [7], in assay [8] and in assay [9] was “no binding (tested: OD value <0.5; antibody 150 ng/mL)” in each case.

B3: humanized antibody L47H65 (antibody, human IgG1, kappa, V domains shown)
VH: B2 VH with T28A, S30N, G49V
VL: B2 VL
Take B3: the binding result is listed as “no binding (tested: 0.2 to 1 nM)” in assay [1]; “no binding (tested: OD value <0.5; antibody 150 ng/mL)” in assay [2]; “no binding (tested: OD value <0.5; antibody 150 ng/mL)” in assay [3]; “no binding (tested: OD value <0.5; antibody 150 ng/mL)” in assay [4]; “no binding (tested: OD value <0.5; antibody 150 ng/mL)” in assay [5]; “no binding (tested: OD value <0.5; antibody 150 ng/mL)” in assay [6]. Besides, the binding result in assay [7], in assay [8] and in assay [9] was “no binding (tested: OD value <0.5; antibody 150 ng/mL)” throughout.
